Measurements: US12281340B2, “Method of producing N-acyl-amino group-containing compound” (AJINOMOTO CO., INC., priority 2018, dated 2025)

Tests used:
Type in all cases: biochemical
[1] = Synthesis of N-lauroylamino acid / N-lauroylamino acid derivative using purified acylamino acid synthetase, UPLC-MS detection; set-up: key: +: Detected; −: Not detected; conditions: +ATP
[2] = Analysis of ATP dependency of acylamino acid synthetase; conditions: L-Asp and sodium caprate
Protocol: 0.25 mL of a reaction solution containing 50 mM Tris-HCl, 5 mM amino acid, 5 mM sodium caprate, 10 mM or 0 mM ATP, 10 mM MgCl2, 1 mM DTT, 50 μg of the purified enzyme, pH 8.0 was incubated at 25° C. for 24 hours. As the amino acid, L-Asp and Gly were used in AtGH3-6 and CfHP, respectively. After completion of the reaction, 0.8 mL of the reaction stop solution (1% (v/v) phosphoric acid, 75% (v/v) methanol) was added to 0.2 mL of the reaction solution, and the mixture was filtrated through the filter followed by being subjected to the UPLC-MS analysis to quantify a produced N-caprinoylamino acid by detection at UV 210 nm. The condition for the UPLC-MS analysis is as described in Example 2. As a result of the analysis, 3.8 mM and […] of the N-caprinoylamino acids were detected in AtGH3-6 and CfHP, respectively in the presence of ATP. However, in the absence of ATP, no signal of the molecular weight corresponding to the N-caprinoylamino acid was detected when any of AtGH3-6 and CfHP was used.

[3] = Synthesis of N-caprinoylamino acid using purified acylamino acid synthetase, UPLC-MS detection; set-up: key: +: Detected; −: Not detected; conditions: +ATP
Outline: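 Purified enzyme (50 μg) with 5 mM amino acid, 5 mM sodium caprate, 10 mM ATP, 10 mM MgCl2, 1 mM DTT in Tris-HCl pH 8.0, 24 h at 25° C; product detected by UPLC-MS (ESI-negative) as the N-caprinoyl amino acid mass signal.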

[4] = substrates Sarcosine and sodium laurate
[5] = substrates Taurine and sodium laurate
[6] = substrates GABA and sodium caprate
[7] = substrates Gly and sodium caprate
[8] = substrates L-Ala and sodium caprate
[9] = substrates L-Arg and sodium caprate
[10] = substrates L-Asn and sodium caprate
[11] = substrates L-Asp and sodium caprate
[12] = substrates L-Cys and sodium caprate
[13] = substrates L-Gln and sodium caprate
[14] = substrates L-Glu and sodium caprate
[15] = substrates L-His and sodium caprate
[16] = substrates L-Ile and sodium caprate
[17] = substrates L-Leu and sodium caprate
[18] = substrates L-Lys and sodium caprate
[19] = substrates L-Met and sodium caprate
[20] = substrates L-Phe and sodium caprate
[21] = substrates L-Pro and sodium caprate
[22] = substrates L-Ser and sodium caprate
[23] = substrates L-Thr and sodium caprate
[24] = substrates L-Trp and sodium caprate
[25] = substrates L-Tyr and sodium caprate
[26] = substrates L-Val and sodium caprate
[27] = substrates β-Ala and sodium caprate

Molecule	signal of molecular weight corresponding to N-lauroyl amino acid derivative [1, 4]	signal of molecular weight corresponding to N-lauroyl amino acid derivative [1, 5]	signal of molecular weight corresponding to N-caprinoyl amino acid [3, 6]	signal of molecular weight corresponding to N-caprinoyl amino acid [3, 7]	signal of molecular weight corresponding to N-caprinoyl amino acid [3, 8]	signal of molecular weight corresponding to N-caprinoyl amino acid [3, 9]	signal of molecular weight corresponding to N-caprinoyl amino acid [3, 10]	signal of molecular weight corresponding to N-caprinoyl amino acid [3, 11]	signal of molecular weight corresponding to N-caprinoyl amino acid [3, 12]	signal of molecular weight corresponding to N-caprinoyl amino acid [3, 13]	signal of molecular weight corresponding to N-caprinoyl amino acid [3, 14]	signal of molecular weight corresponding to N-caprinoyl amino acid [3, 15]	signal of molecular weight corresponding to N-caprinoyl amino acid [3, 16]	signal of molecular weight corresponding to N-caprinoyl amino acid [3, 17]	signal of molecular weight corresponding to N-caprinoyl amino acid [3, 18]	signal of molecular weight corresponding to N-caprinoyl amino acid [3, 19]	signal of molecular weight corresponding to N-caprinoyl amino acid [3, 20]	signal of molecular weight corresponding to N-caprinoyl amino acid [3, 21]	signal of molecular weight corresponding to N-caprinoyl amino acid [3, 22]	signal of molecular weight corresponding to N-caprinoyl amino acid [3, 23]	further results
AtGH3-6: indole-3-acetic acid-amido synthetase GH3.6 from Arabidopsis thaliana, expressed in E. coli with N-terminal His-tag (protein, listed as Arabidopsis thaliana, N-terminal His-tag, indole-3-acetic acid-amido synthetase GH3.6 from Arabidopsis thaliana, expressed in E. coli with N-terminal His-tag) MPEAPKIAALEVSDESLAEKNKNKLQFIEDVTTNADDVQRRVLEEILSRNADVEYLKRHGLEGRTDRETFKHIMPVVTYEDIQPEINRIANGDKSQVLCSNPISEFLTSSGTSGGERKLMPTIEEELDRRSLLYSLLMPVMDQFVPGLDKGKGMYFLFIKSESKTPGGLPARPVLTSYYKSSHFKNRPYDPYTNYTSPNQTILCSDSYQSMYSQMLCGLCQHKEVLRVGAVFASGFIRAIKFLEKHWPELARDIRTGTLSSEITDSSVREAVGEILKPDPKLADFVESECRKTSWQGIITRLWPNTKYVDVIVTGTMSQYIPTLDYYSNGLPLVCTMYASSECYFGVNLRPLCKPSEVSYTLIPNMAYFEFLPVHRNSGVTSSISLPKALTEKEQQELVDLVDVKLGQEYELVVTTYAGLYRYRVGDVLSVAGFKNNAPQFSFICRKNVVLSIDSDKTDEVELQNAVKNAVTHLVPFDASLSEYTSYADTSSIPGHYVLFWELCLNGNTPIPPSVFEDCCLTIEESLNSVYRQGRVSDKSIGPLEIKMVESGTFDKLMDYAISLGASINQYKTPRCVKFAPIIELLNSRVVDSYFSPKCPKWSPGHKQWGSN	+	+	+	+	+	+	+	+	+	+	+	+	+	+	+	+	+	+	+	+	signal of molecular weight corresponding to N-caprinoyl amino acid ([2]; in the absence of ATP): no signal; N-caprinoylamino acid detected ([2]; in the presence of ATP (10 mM), UV 210 nm): 3.8 mM; signal of molecular weight corresponding to N-caprinoyl amino acid [3, 24]: +; signal of molecular weight corresponding to N-caprinoyl amino acid [3, 25]: +; signal of molecular weight corresponding to N-caprinoyl amino acid [3, 26]: +; signal of molecular weight corresponding to N-caprinoyl amino acid [3, 27]: +
AtGH3-12: 4-substituted benzoates-glutamate ligase GH3.12 from Arabidopsis thaliana, His-tagged (protein, listed as Arabidopsis thaliana, His-tag, 4-substituted benzoates-glutamate ligase GH3.12 from Arabidopsis thaliana, His-tagged) MKPIFDINETFEKQLKDLTSNVKSIQDNLLEEIITPNTKTEYLQRFLIDRFDKELFKKNVPIVSYEDIKPYLDRVVNGESSDVISARTITGFLLSSGTSGGAQKMMPWNNKYLDNLTFIYDLRMQVITKHVKGVEEGKGMMFLFTKQESMTPSGLPARVATSSYFKSDYFKNRPSNWYYSYTSPDEVILCPNNTESLYCHLLCGLVQRDEVVRTGSIFASVMVRAIEVLKNSWEELCSNIRSGHLSNWVTDLGCQNSVSLVLGGPRPELADTIEEICNQNSWKGIVKRLWPNTKYIETVVTGSMGQYVPMLNYYCNDLPLVSTTYGSSETTFGINLDPLCKPEDVSYTFMPNMSYFEFIPMDGGDKNDVVDLEDVKLGCTYEPVVTNFAGLYRMRVGDIVLVTGFYNNAPQFKFVRRENVVLSIDSDKTNEEDLFKAVSQAKLVLESSGLDLKDFTSYADTSTFPGHYVVYLEVDTKEGEEKETAQFELDEEALSTCCLVMEESLDNVYKRCRFKDGSIGPLEIRVVRQGTFDSLMDFFISQGASTGQYKTPRCIKSGKALQVLETCVVAKFFSI	−	+	+	+	+	+	+	+	+	+	+	+	+	+	+	+	+	+	+	+	signal of molecular weight corresponding to N-caprinoyl amino acid [3, 24]: +; signal of molecular weight corresponding to N-caprinoyl amino acid [3, 25]: +; signal of molecular weight corresponding to N-caprinoyl amino acid [3, 26]: +; signal of molecular weight corresponding to N-caprinoyl amino acid [3, 27]: +
